Here are results for 94 variants from the supplement of paper PMC10567573.

The chains are these.
B1: NCK2 (parent)
chain: YTGPSSSGRFAGREWYYGNVTRHQ
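Note: lentivirally expressed fusions sorted by FACS into six bins by GFP to DsRed ratio, PSI derived from sequencing read proportions per bin multiplied by bin number.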

In this data set the parent is B1. The data set is described as follows: protein stability index of a GFP-peptide fusion (GPS, HEK-293T) (PSI 1-6); higher = more stable. As to conditions: c terminus: a fixed tail appended.
With YTGPSCSGRFAGREWYYGNVTRHQ [S6C], the protein stability index worked out at 1.69.

With YTGPSISGRFAGREWYYGNVTRHQ [S6I], the protein stability index came to 1.96.

For YTGPSTSGRFAGREWYYGNVTRHQ [S6T], the protein stability index turned out to be 1.93.

For YTGPSPSGRFAGREWYYGNVTRHQ [S6P], the protein stability index is 1.66.

With YTGPSKSGRFAGREWYYGNVTRHQ [S6K], the protein stability index is 2.35.

YTGPSFSGRFAGREWYYGNVTRHQ [S6F]: the protein stability index was found to be 3.15.

Take YTGPSMSGRFAGREWYYGNVTRHQ [S6M]: the protein stability index is 2.35.

For the variant YTGPSQSGRFAGREWYYGNVTRHQ [S6Q], the protein stability index was 2.22.

In the case of YTGPSVSGRFAGREWYYGNVTRHQ [S6V], the protein stability index was 1.58.

For the variant YTGPSHSGRFAGREWYYGNVTRHQ [S6H], the protein stability index was 2.15.

As to YTGPSGSGRFAGREWYYGNVTRHQ [S6G], the protein stability index came out at 1.54.

As to YTGPSYSGRFAGREWYYGNVTRHQ [S6Y], the protein stability index is 2.13.

In the case of YTGPSNSGRFAGREWYYGNVTRHQ [S6N], the protein stability index is 1.78.

With YTGPSESGRFAGREWYYGNVTRHQ [S6E], the protein stability index came out at 1.49.

YTGPSASGRFAGREWYYGNVTRHQ [S6A]: the protein stability index turned out to be 2.09.

With YTGPSDSGRFAGREWYYGNVTRHQ [S6D], the protein stability index turned out to be 1.91.

For YTGPSSSGRFAGRAWYYGNVTRHQ [E14A], the protein stability index amounted to 1.57.

As for YTGPSSSGRFAGRFWYYGNVTRHQ [E14F], the protein stability index was found to be 1.95.

As for YTGPSSSGRFAGRDWYYGNVTRHQ [E14D], the protein stability index is 1.4.

Regarding YTGPSSSGRFAGRCWYYGNVTRHQ [E14C], the protein stability index stood at 3.32.

On to YTGISSSGRFAGREWYYGNVTRHQ [P4I], for which the protein stability index was 1.03.

As to YTGQSSSGRFAGREWYYGNVTRHQ [P4Q], the protein stability index is 1.26.

On to YTGKSSSGRFAGREWYYGNVTRHQ [P4K], for which the protein stability index is 2.4.

As for YTGTSSSGRFAGREWYYGNVTRHQ [P4T], the protein stability index is 1.9.

For the variant YTGESSSGRFAGREWYYGNVTRHQ [P4E], the protein stability index was found to be 2.31.

As to YTGMSSSGRFAGREWYYGNVTRHQ [P4M], the protein stability index worked out at 2.37.

As to YTGRSSSGRFAGREWYYGNVTRHQ [P4R], the protein stability index amounted to 3.61.

Consider YTGCSSSGRFAGREWYYGNVTRHQ [P4C], for which the protein stability index came out at 3.83.

As to YTGASSSGRFAGREWYYGNVTRHQ [P4A], the protein stability index came out at 2.13.

For the variant YTGFSSSGRFAGREWYYGNVTRHQ [P4F], the protein stability index is 1.82.

For the variant YTGLSSSGRFAGREWYYGNVTRHQ [P4L], the protein stability index came to 1.64.

As to YTGHSSSGRFAGREWYYGNVTRHQ [P4H], the protein stability index was found to be 2.48.

As for YTGVSSSGRFAGREWYYGNVTRHQ [P4V], the protein stability index was 1.36.

Consider YTGSSSSGRFAGREWYYGNVTRHQ [P4S], for which the protein stability index was 1.79.

For YTGYSSSGRFAGREWYYGNVTRHQ [P4Y], the protein stability index was determined as 3.08.

On to YTGGSSSGRFAGREWYYGNVTRHQ [P4G], for which the protein stability index was determined as 1.99.

Regarding YTGWSSSGRFAGREWYYGNVTRHQ [P4W], the protein stability index was 1.71.

In the case of YTGNSSSGRFAGREWYYGNVTRHQ [P4N], the protein stability index amounted to 2.32.

On to YTGDSSSGRFAGREWYYGNVTRHQ [P4D], for which the protein stability index is 1.56.

Consider YTGPSSSGRFAGKEWYYGNVTRHQ [R13K], for which the protein stability index was found to be 2.02.

For the variant YTGPSSSGRFAGWEWYYGNVTRHQ [R13W], the protein stability index is 2.01.

Regarding YTGPSSSGRFAGPEWYYGNVTRHQ [R13P], the protein stability index was determined as 1.97.

For YTGPSSSGRFAGHEWYYGNVTRHQ [R13H], the protein stability index stood at 2.75.

On to YTGPSSSGRFAGVEWYYGNVTRHQ [R13V], for which the protein stability index was 2.44.

For YTGPSSSGRFAGIEWYYGNVTRHQ [R13I], the protein stability index was found to be 2.64.

In the case of YTGPSSSGRFAGDEWYYGNVTRHQ [R13D], the protein stability index is 2.09.

For YTGPSSSGRFAGYEWYYGNVTRHQ [R13Y], the protein stability index stood at 1.94.

As for YTGPSSSGRFAGGEWYYGNVTRHQ [R13G], the protein stability index worked out at 2.21.

With YTGPSSSGRFAGMEWYYGNVTRHQ [R13M], the protein stability index was found to be 1.63.

Consider YTGPSSSGRFAGEEWYYGNVTRHQ [R13E], for which the protein stability index worked out at 2.

On to YTGPSSSGRFAGNEWYYGNVTRHQ [R13N], for which the protein stability index amounted to 1.91.

As to YTGPSSSGRFAGCEWYYGNVTRHQ [R13C], the protein stability index worked out at 3.48.

With YTGPSSSGRFAGFEWYYGNVTRHQ [R13F], the protein stability index is 2.33.

Take YTGPSSSGRFAGTEWYYGNVTRHQ [R13T]: the protein stability index is 1.81.

Take YTGPSSSGRFAGAEWYYGNVTRHQ [R13A]: the protein stability index was determined as 1.61.

YTGPSSSGRFAGQEWYYGNVTRHQ [R13Q]: the protein stability index was 2.44.

Consider YTGPSSSGRFAGSEWYYGNVTRHQ [R13S], for which the protein stability index stood at 2.03.

YTGPSSSGRFAGLEWYYGNVTRHQ [R13L]: the protein stability index worked out at 1.7.

YTGPSSSLRFAGREWYYGNVTRHQ [G8L]: the protein stability index came out at 3.02.

For YTGPSSSMRFAGREWYYGNVTRHQ [G8M], the protein stability index was 1.68.

With YTGPSSSNRFAGREWYYGNVTRHQ [G8N], the protein stability index was 1.71.

YTGPSSSFRFAGREWYYGNVTRHQ [G8F]: the protein stability index is 2.04.

On to YTGPSSSDRFAGREWYYGNVTRHQ [G8D], for which the protein stability index was 2.65.

Turning to YTGPSSSHRFAGREWYYGNVTRHQ [G8H], the protein stability index is 1.51.

As to YTGPSSSPRFAGREWYYGNVTRHQ [G8P], the protein stability index was 1.66.

Consider YTGPSSSVRFAGREWYYGNVTRHQ [G8V], for which the protein stability index is 1.48.

YTGPSSSSRFAGREWYYGNVTRHQ [G8S]: the protein stability index was determined as 2.22.

With YTGPSSSTRFAGREWYYGNVTRHQ [G8T], the protein stability index was 1.87.

Take YTGPSSSRRFAGREWYYGNVTRHQ [G8R]: the protein stability index turned out to be 2.3.

YTGPSSSARFAGREWYYGNVTRHQ [G8A]: the protein stability index amounted to 1.25.

For the variant YTGPSSSERFAGREWYYGNVTRHQ [G8E], the protein stability index was determined as 2.32.

Take YTGPSSSCRFAGREWYYGNVTRHQ [G8C]: the protein stability index came to 2.32.

On to YTGPSSSIRFAGREWYYGNVTRHQ [G8I], for which the protein stability index worked out at 1.59.

Turning to YTGPSSSQRFAGREWYYGNVTRHQ [G8Q], the protein stability index came to 1.64.

Consider YTGPSSSYRFAGREWYYGNVTRHQ [G8Y], for which the protein stability index was found to be 2.22.

As to YTGPSSSKRFAGREWYYGNVTRHQ [G8K], the protein stability index worked out at 1.82.

YTGPSSSGRFTGREWYYGNVTRHQ [A11T]: the protein stability index is 2.3.

With YTGPSSSGRFQGREWYYGNVTRHQ [A11Q], the protein stability index was found to be 2.21.

For the variant YTGPSSSGRFYGREWYYGNVTRHQ [A11Y], the protein stability index is 2.2.

On to YTGPSSSGRFFGREWYYGNVTRHQ [A11F], for which the protein stability index was determined as 4.19.

Regarding YTGPSSSGRFSGREWYYGNVTRHQ [A11S], the protein stability index came to 2.2.

With YTGPSSSGRFVGREWYYGNVTRHQ [A11V], the protein stability index was determined as 1.62.

With YTGPSSSGRFMGREWYYGNVTRHQ [A11M], the protein stability index amounted to 1.48.

Regarding YTGPSSSGRFHGREWYYGNVTRHQ [A11H], the protein stability index came out at 2.

In the case of YTGPSSSGRFLGREWYYGNVTRHQ [A11L], the protein stability index amounted to 2.02.

With YTGPSSSGRFKGREWYYGNVTRHQ [A11K], the protein stability index stood at 1.32.

As to YTGPSSSGRFGGREWYYGNVTRHQ [A11G], the protein stability index is 2.44.

Regarding YTGPSSSGRFEGREWYYGNVTRHQ [A11E], the protein stability index came out at 2.04.

Turning to YTGPSSSGRFNGREWYYGNVTRHQ [A11N], the protein stability index stood at 2.34.

On to YTGPSSSGRFPGREWYYGNVTRHQ [A11P], for which the protein stability index was determined as 1.25.

As for YTGPSSSGRFIGREWYYGNVTRHQ [A11I], the protein stability index is 1.55.

With YTGPSSSGRFWGREWYYGNVTRHQ [A11W], the protein stability index is 3.03.

As to YTGPSSSGRFRGREWYYGNVTRHQ [A11R], the protein stability index is 1.85.

For the variant YTGPSSSGRFDGREWYYGNVTRHQ [A11D], the protein stability index stood at 1.95.
